One data set concerns the target T1, haptoglobin 1-1 (Homo sapiens, UniProt P00738).
T1 construct: Hp 1-1 is composed of two α^1β dimers and has a molecular weight of about 98 kDa
T1 sequence (P00738 19-347 isoform P00738-2 limits assumed): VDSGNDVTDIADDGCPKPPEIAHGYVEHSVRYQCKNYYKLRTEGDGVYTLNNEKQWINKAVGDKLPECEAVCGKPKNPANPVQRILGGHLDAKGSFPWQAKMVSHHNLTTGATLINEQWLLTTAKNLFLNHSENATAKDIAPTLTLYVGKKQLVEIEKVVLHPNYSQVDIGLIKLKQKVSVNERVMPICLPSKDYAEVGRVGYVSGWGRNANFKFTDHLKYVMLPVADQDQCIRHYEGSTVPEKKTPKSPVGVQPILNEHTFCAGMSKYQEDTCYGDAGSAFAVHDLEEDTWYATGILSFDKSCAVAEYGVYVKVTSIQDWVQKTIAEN
T1 sequence (P00738 103-347 isoform P00738-2 limits assumed): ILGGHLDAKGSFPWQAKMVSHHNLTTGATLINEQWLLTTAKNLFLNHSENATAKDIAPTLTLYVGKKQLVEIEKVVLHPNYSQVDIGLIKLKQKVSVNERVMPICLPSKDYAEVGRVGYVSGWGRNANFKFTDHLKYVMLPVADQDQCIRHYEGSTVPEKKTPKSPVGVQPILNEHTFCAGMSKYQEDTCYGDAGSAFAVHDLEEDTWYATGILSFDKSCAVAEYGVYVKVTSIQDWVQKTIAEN
The data set is described as follows: Complex formation of modified hemoglobins with haptoglobin 1-1 (size exclusion / anion exchange chromatography). Type of data set: binding. To be noted: THb-PQ mixture with haptoglobin 1-1, room temperature, 21 hours. (In general: Size exclusion chromatography separates by hydrodynamic size, large species first.)

Another data set relates to plasmid DNA (pCMVbeta). The data set is described as follows: Gel mobility shift assay of DNA binding. To be noted: 50 to 1600 ng of protein, 140 ng DNA. As for the experimental part: Gel mobility shift assays were conducted to evaluate the stoichiometry of binding of plasmid DNA (pCMVbeta) to the THb-Kn conjugates. This gel electrophoretic method is based on the observation that the migratory properties of the DNA are altered upon binding protein. Neither proteins nor DNA-protein complexes in which protein constitutes a significant part of their mass enter 1% agarose gels. If mixtures with an increasing THb-Kn to DNA ratio are analyzed, it is observed that the DNA band disappears at and above the ratio that corresponds to the stoichiometry of the complex. For each of the four conjugates and for the THb-K26kDa-Hp complex, solutions containing from 0.4 to 6400 ng of the conjugate (this weight based on the hemoglobin component) in 32 μL of 20 mM HEPES pH 7.3 containing 150 mM NaCl were prepared. […] The samples (15 μL) were analyzed on a 1% agarose gel containing ethidium bromide (0.2 μg/mL). The amount of conjugate which prevented DNA entry into the gel was determined.
FIG. 4A (left) and 4B (right) are depictions of gel mobility shift assays of haptoglobin-hemoglobin-DNA conjugates produced according to Example 4. […] The results for THb-K26kDa are in good agreement with the fluorescence quench assay which indicated 86% of fluorescence decrease at the same THb-K26kDa to DNA ratio. […]

Another data set addresses T2, rat haptoglobin (Rattus norvegicus, UniProt P06866).
T2 construct: combined with rat serum containing haptoglobin; from tissue; host or cells: rat serum
T2 sequence (P06866 19-101 limits assumed): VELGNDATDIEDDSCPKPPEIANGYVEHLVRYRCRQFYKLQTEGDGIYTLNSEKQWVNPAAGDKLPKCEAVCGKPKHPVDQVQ
T2 sequence (P06866 103-347 limits assumed): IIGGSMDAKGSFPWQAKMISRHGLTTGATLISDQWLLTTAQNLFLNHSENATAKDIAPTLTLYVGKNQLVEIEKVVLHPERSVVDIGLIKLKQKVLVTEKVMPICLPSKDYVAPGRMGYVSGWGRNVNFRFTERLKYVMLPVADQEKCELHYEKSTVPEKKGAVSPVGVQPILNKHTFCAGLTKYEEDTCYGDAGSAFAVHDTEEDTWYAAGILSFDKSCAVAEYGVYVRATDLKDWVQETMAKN
The data set is described as follows: Binding of modified human Hb ([3H]-NEM-Hb) to rat haptoglobin in plasma (SEC). As for the experimental part: 1 mCi of ^3H-N-ethylmaleimide ([^3H]-NEM) in pentane was evaporated in 0.5 mL phosphate buffer, and 25 mg of Hb in 1 mL buffer was added giving a final NEM:Hb ratio of 0.06:1, or 37 μCi/mg Hb. RP HPLC analysis after 24 hours at 4° C. indicated incorporation of the majority of the radiolabel into a modified beta peak. After 47 hr, a 15-fold excess (over βCys93 thiol) of non-radiolabeled NEM was added. Salts and unbound NEM were removed by gel filtration, and the final concentration adjusted to 10.2 mg Hb/mL. A small portion of this material (^3H-NEM-Hb) was then combined with rat serum containing haptoglobin to determine if all radiolabeled components bound to Hp. The Hb-binding capacity of the rat serum was adjusted to […] Hb/mL serum. 0.5 and 2.0 equivalents of ^3H-NEM-Hb, based on Hb-binding capacity, were combined with serum and analyzed -by size exclusion chromatography eluted under dissociating, non-denaturing conditions using 0.5 M MgCl2, 25 mM Tris pH 7.4 (FIG. 15). In the ^3H-NEM-Hb preparation, all radioactivity was associated with a 32 kDa peak. […] 7.3% of the radioactivity combining with plasma components appears in a high MW peak at 22 minutes.

Data set [1] is described as follows: Biodistribution of modified Hb and haptoglobin complexes in rat. To be noted: for AUC Liver / AUC Plasma: dose = ug Hb/g body weight, no extrapolation to time zero.
Protocol: The ability of Hp to target modified Hb to the liver was measured in a radioisotope biodistribution study. Two test articles were prepared from purified human HbA0 modified with tritium-labeled N-ethylmaleimide ([^3H]-NEM-Hb): [^3H]-NEM-Hb alone in Ringer's lactate, and [^3H]-NEM-Hb complexed to a slight excess of rat haptoglobin in rat plasma. Three treatment groups were analyzed; (A) normal rats received the modified Hb-haptoglobin complex in plasma, (B) normal rats received the modified Hb only (approximately twice the Hb-binding capacity of the rat), and (C) haptoglobin-depleted rats received the modified Hb only. Approximately 3 mg of Hb were administered to conscious Sprague-Dawley rats in each case. Liver and plasma samples were collected at 30, 60 and 120 minutes post-administration and radioactivity counted after solubilization and quenching.
The mark [2] stands for this setting: 30 minutes, haptoglobin-depleted rats (group C).
[3] abbreviates: 30 minutes, normal rats (groups A, B).
Where [4] appears, read: haptoglobin-depleted rats (group C).

Take “THb: TTDS (trimesoyl tris(3,5-dibromosalicylate)) cross-linked hemoglobin, hydrolyzed, without attached agent [reference compound]”: in the data set with haptoglobin 1-1, the “reacted with Hp (anion exchange chromatography)” value amounted to 74%. The “DNA binding (change in DNA migration)” value with plasmid DNA (pCMVbeta) was “does not bind DNA”.
Take “[^3H]-NEM-Hb: purified human HbA0 modified with tritium-labeled N-ethylmaleimide; given alone to groups B and C”: the “capability of all components to bind rat haptoglobin in plasma” value with rat haptoglobin is recorded as “capable of binding rat haptoglobin in plasma”. Moreover, the “radioactivity appearing in the Hb-haptoglobin peak” value with rat haptoglobin (0.5 eq. based on Hb-binding capacity of rat serum, SEC) is listed as “all radioactivity appeared in the Hb-haptoglobin peak”. Moreover, in the data set with rat haptoglobin (2.0 eq. based on Hb-binding capacity of rat serum, SEC), the “binding state at haptoglobin saturation” value was “haptoglobin is saturated and excess ^3H-NEM-Hb remains unbound”. In addition, the “radioactivity combining with plasma components appearing in high MW peak at 22 minutes” value in the data set with rat haptoglobin (rat serum, SEC) came to 7.3%. In data set [1] (setting [2]), the “dose in the plasma and liver compartments relative to groups A and B” value was “roughly half that amount”; the “total dose in the liver” value was found to be 11%. In data set [1] (setting [3]), the “dose in the plasma and liver compartments” value is on record as 60%; the “total dose in the liver” value is on record as “approximately 20%”. Also, the “liver to plasma concentration/dose ratio” value in data set [1] (120 minutes, normal rats (groups A, B)) was “approximately 4 times”. Also, the “liver content relative to group C” value in data set [1] (120 minutes, normal rats vs haptoglobin-depleted rats given modified Hb only) was 2 fold. In data set [1] (setting [4]), the “AUC Liver” value is reported as 234.0 ug Hb · min/g/dose and the “AUC Plasma” value was 163.0 ug Hb · min/mL/dose. In data set [1] (normal rats (groups A, B) vs haptoglobin-depleted rats), the “liver uptake (area under distribution curve) relative to group C” value is reported as “approximately twice that of group C”. Also, in data set [1] (normal rats (groups A, B)), the “AUC Liver” value is reported as 510.4 ug Hb · min/g/dose and the “AUC Plasma” value was 284.2 ug Hb · min/mL/dose.
With “unmodified hemoglobin: unmodified (uncross-linked) hemoglobin remaining in the THb-PQ product mixture”, in the data set with haptoglobin 1-1, the “reacted with Hp (anion exchange chromatography)” value is “all”.
